# Data taken from patent publication US5780025A, “Compositions and methods for the synthesis and assay of enkephalinase” (Genentech, Inc., priority 1993, dated 1998).
# B1: rat kidney enkephalinase: enkephalinase purified from rat kidney, fractions from the last Concanavalin-A step, about 90 Kdalton protein (protein, UniProt P07861 2-750, looked up)
# Neprilysin: GRSESQMDITDINAPKPKKKQRWTPLEISLSVLVLLLTIIAVTMIALYATYDDGICKSSDCIKSAARLIQNMDASAEPCTDFFKYACGGWLKRNVIPETSSRYSNFDILRDELEVILKDVLQEPKTEDIVAVQKAKTLYRSCINESAIDSRGGQPLLTLLPDIYGWPVASQNWEQTYGTSWTAEKSIAQLNSKYGKKVLINFFVGTDDKNSTQHIIHFDQPRLGLPSRDYYECTGIYKEACTAYVDFMISVARLIRQEQRLPIDENQLSLEMNKVMELEKEIANATTKPEDRNDPMLLYNKMTLAKLQNNFSLEINGKPFSWSNFTNEIMSTVNINIQNEEEVVVYAPEYLTKLKPILTKYSPRDLQNLMSWRFIMDLVSSLSRNYKESRNAFRKALYGTTSETATWRRCANYVNGNMENAVGRLYVEAAFAGESKHVVEDLIAQIREVFIQTLDDLTWMDAETKKKAEEKALAIKERIGYPDDIISNENKLNNEYLELNYKEEEYFENIIQNLKFSQSKQLKKLREKVDKDEWISGAAVVNAFYSSGRNQIVFPAGILQPPFFSARQSNSLNYGGIGMVIGHEITHGFDDNGRNFNKDGDLVDWWTQQSANNFKDQSQCMVYQYGNFTWDLAGGQHLNGINTLGENIADNGGIGQAYRAYQNYVKKNGEEKLLPGLDLNHKQLFFLNFAQVWCGTYRPEYAVNSIKTDVHSPGNFRIIGTLQNSAEFADAFHCRKNSYMNPERKCRVW
# B2: Enkephalinase: Enkephalinase produced by the method of the instant invention, essentially pure (protein, UniProt P07861 2-750, looked up)
# Neprilysin: B1 Neprilysin
# B3: pCISrENK: rat enkephalinase expressed from plasmid pCISrENK in human embryonic kidney (293) cells and purified (protein, UniProt P07861 2-750, looked up)
# Neprilysin: B1 Neprilysin
# modifications: recombinant, expressed in 293 cells
# notes: rat enkephalinase expressed from plasmid pCISrENK in human embryonic kidney (293) cells and purified
# B4: prENKsense: in vitro transcription/translation product of plasmid prENKsense (full length rat enkephalinase cDNA), rabbit reticulocyte lysate (protein, UniProt P07861 1-750, looked up)
# chain: MGRSESQMDITDINAPKPKKKQRWTPLEISLSVLVLLLTIIAVTMIALYATYDDGICKSSDCIKSAARLIQNMDASAEPCTDFFKYACGGWLKRNVIPETSSRYSNFDILRDELEVILKDVLQEPKTEDIVAVQKAKTLYRSCINESAIDSRGGQPLLTLLPDIYGWPVASQNWEQTYGTSWTAEKSIAQLNSKYGKKVLINFFVGTDDKNSTQHIIHFDQPRLGLPSRDYYECTGIYKEACTAYVDFMISVARLIRQEQRLPIDENQLSLEMNKVMELEKEIANATTKPEDRNDPMLLYNKMTLAKLQNNFSLEINGKPFSWSNFTNEIMSTVNINIQNEEEVVVYAPEYLTKLKPILTKYSPRDLQNLMSWRFIMDLVSSLSRNYKESRNAFRKALYGTTSETATWRRCANYVNGNMENAVGRLYVEAAFAGESKHVVEDLIAQIREVFIQTLDDLTWMDAETKKKAEEKALAIKERIGYPDDIISNENKLNNEYLELNYKEEEYFENIIQNLKFSQSKQLKKLREKVDKDEWISGAAVVNAFYSSGRNQIVFPAGILQPPFFSARQSNSLNYGGIGMVIGHEITHGFDDNGRNFNKDGDLVDWWTQQSANNFKDQSQCMVYQYGNFTWDLAGGQHLNGINTLGENIADNGGIGQAYRAYQNYVKKNGEEKLLPGLDLNHKQLFFLNFAQVWCGTYRPEYAVNSIKTDVHSPGNFRIIGTLQNSAEFADAFHCRKNSYMNPERKCRVW
# modifications: full-length in vitro translated
# notes: in vitro transcription/translation product of plasmid prENKsense (full length rat enkephalinase cDNA), rabbit reticulocyte lysate
# What was measured:
# [1] = biological target: T1, ^3 H-(DAla^2, Leu^5)enkephalin (Rattus norvegicus, UniProt P07861); test: Assay of enkephalinase activity with tritiated enkephalin substrate (Llorens et al. 1982); type: biochemical
# T1 construct: Rat kidney enkephalinase was purified to apparent homogeneity; from tissue; host or cells: rat kidney (male rats, membrane fraction, Triton X-100 solubilised)
# T1 sequence (P07861 1-750): B4 chain
# Text: As used herein, enkephalinase or enkephalinase derivatives refers to proteins which are enzymatically active or are immunologically cross-reactive with enzymatically active enkephalinase. Enzymatically functional enkephalinase is capable of cleaving the Gly^3 -Phe^4 amide bond of ^3 H-(DAla^2, Leu^5)enkephalin in an assay as described by Llorens et al. (1982).
# "Essentially free from" or "essentially pure" when used to describe the state of enkephalinase produced by the invention means free of protein or other materials normally associated with enkephalinase in its in vivo physiological milieu as for example when enkephalinase is obtained from blood and/or tissues by extraction and purification.
# Enkephalinase activity was measured as described by Llorens et al. (1982) using ^3 H-(DAla^2, Leu^5)enkephalin as a substrate. […]
# [2] = biological target: T2, dansyl-Gly-Trp-Gly or dansyl-Gly-Tyr-Gly (Rattus norvegicus, UniProt P07861); test: Enkephalinase activity of expressed rat enkephalinase material; type: biochemical; settings: rat enkephalinase cDNA expression products
# T2 construct: made in house; host or cells: human embryonic kidney (293) cells (pCISrENK); also rabbit reticulocyte lysate in vitro translation (prENKsense)
# T2 sequence (P07861 1-750): B4 chain
# Text: An assay using novel fluorescent substrates for enkephalinase was developed to assess whether enkephalinase is expressed. This assay is based on the disappearance of energy transfer between a tryptophan or a tyrosine residue and the 5-dimethylaminonaphthalene-1-sulfonyl group (dansyl) in the substrates dansyl-Gly-Trp-Gly or dansyl-Gly-Tyr-Gly upon hydrolysis of their Gly-Trp or Gly-Tyr amide bond by enkephalinase. No significant difference in Km or kcat values were found for dansyl-Gly-Trp-Gly and dansyl-Gly-Tyr-Gly as the active site of enkephalinase appears to accommodate tryptophan residues similarly to tyrosine. The tryptophan and tyrosine containing substrates can be used for continuous recording of enkephalinase activity. […]
# Fluorescence measurements were made using a Perkin Elmer, model 650-10S spectrofluorometer, equipped with a temperature controlled cell-holder, maintained at 37° C. […] The 600 μl mixture was transferred into a quartz cuvette, and fluorescence measured. […] The fluorescence in the incubation media could thus be related to the amounts of hydrolyzed substrates. […] Ten μl of purified rat kidney enkephalinase was added and the increase in tryptophan or tyrosine fluorescence was continuously monitored (excitation=280 nm, emission=360 nm for tryptophan, excitation 277, emission 315 for tyrosine). […] Under these conditions, tryptophan fluorescence was stable for over 2 hr.
Molecule,enkephalinase activity of expressed material [2],other results
B1,,"enkephalinase activity, specific activity ([1]; six 1 ml fractions from the last Concanavalin-A step, measured at 25° C., ^3 H-(DAla^2, Leu^5)enkephalin as substrate): 27.4 nmole/mg protein/min"
B2,,"specific activity ([1]; 20 nM ^3 H-(DAla^2, Leu^5)enkephalin as substrate, 25° C., 50 mM pH 7.4 HEPES buffer containing 0.02% Tween 20): at least 25 nmole/mg protein/min"
B3,biologically active,
B4,did not have detectable activity,
